The text below walks through data of patent US20220401521A1 (NANJING HANXIN PHARMACEUTICAL TECHNOLOGY, published 2022).

Assay [1] concerns the target melanocortin receptor 2 (MC2R). The assay is described as follows: cell-based or functional assay.
The target in assay [2] is melanocortin receptor 2 (MC2R). The assay is described as follows: cell-based or functional assay. This is another data set of the same source.

No end group written: not given here.

Chain of melanocortin receptor 2 (MC2R) (Q01718 whole entry): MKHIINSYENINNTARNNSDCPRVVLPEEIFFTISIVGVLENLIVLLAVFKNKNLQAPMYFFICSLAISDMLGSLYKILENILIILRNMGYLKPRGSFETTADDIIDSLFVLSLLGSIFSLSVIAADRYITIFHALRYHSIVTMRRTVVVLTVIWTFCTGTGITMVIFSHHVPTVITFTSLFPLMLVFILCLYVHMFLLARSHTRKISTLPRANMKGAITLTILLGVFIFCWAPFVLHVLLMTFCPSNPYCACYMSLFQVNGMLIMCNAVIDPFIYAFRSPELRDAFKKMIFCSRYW

For the molecule SYSMEHFRWGKPVGKKRRPVKVYPNGAEDESAEAFPLEF (also: acetate salt) [high-purity ACTH (human sequence SEQ ID NO: 3, 99.88%)], the “activity of high-purity ACTH relative to low-purity ACTH (calcium ion signal, MC2R cells)” value in assay [1] came out at 1.6 fold. In addition, the “EC50(nM), calcium ion signal in CHO-K1 cells expressing MC2R” value in assay [2] was determined as 180 nM.

Turning to SYSMEHFRWGKPVGKKRRPVKVYPNGAEDESAEAFPLEF [low-purity ACTH (human sequence SEQ ID NO: 3, 75.72%)], the “EC50(nM), calcium ion signal in CHO-K1 cells expressing MC2R” value in assay [2] came out at 288 nM.
